Data on four molecules can be found in publication PMC3690534 (Molecular Cell, 2013).

Where a chain is given by its changes, count along the chain named. Names may count otherwise. Square brackets hold non-standard residues; d marks the D form. pS = N[C@@H](COP(=O)(O)O)C(=O)O

The target of experiment [1] is T1, Saccharomyces cerevisiae Cdh1 WD40 domain (residues 241-550) (S. cerevisiae, UniProt P53197 241-550).
T1 sequence (looked up): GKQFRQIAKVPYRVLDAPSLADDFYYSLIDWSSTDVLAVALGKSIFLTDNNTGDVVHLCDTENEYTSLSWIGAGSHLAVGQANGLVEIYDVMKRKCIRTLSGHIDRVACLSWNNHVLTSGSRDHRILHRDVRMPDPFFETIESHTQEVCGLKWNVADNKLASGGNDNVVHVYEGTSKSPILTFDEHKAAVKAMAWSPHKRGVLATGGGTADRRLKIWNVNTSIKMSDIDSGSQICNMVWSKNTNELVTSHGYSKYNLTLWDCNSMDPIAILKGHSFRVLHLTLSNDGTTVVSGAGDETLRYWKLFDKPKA
The experiment in a line: crystal structure.

Experiment [2] deals with T1, Saccharomyces cerevisiae Cdh1 WD40 …. The experiment in a line: SAXS.
Experiment [3] shares this target. The experiment in a line: AUC.
Experiment [4] has the same target. The experiment in a line: SEC-MALS. On the technique in general: Size exclusion chromatography separates by hydrodynamic size, large species first.

B1: Acm1 central inhibitory region (residues 59-128) (domain or fragment, S. cerevisiae, UniProt Q08981 59-128, looked up)
chain: AQFMLYEETAEERNIAVHRHNEIYNNNNSVSNENNPSQVKENL[pS]PAKICPYERAFLREGGRIALKDLSVD
For B1, in experiment [1], the binding result is “binds”.

B2: Acm1^CIR-mNEN (Acm1^CIR-N90A/E91A/N92A) (domain or fragment, S. cerevisiae, UniProt Q08981 59-128, looked up)
chain: AQFMLYEETAEERNIAVHRHNEIYNNNNSVSAAANPSQVKENLSPAKICPYERAFLREGGRIALKDLSVD
As to B2, the binding result in experiment [2] is reported as “binds”.

B3: Acm1^ΔN (Acm1 residues 59-209), wild type (domain or fragment, S. cerevisiae, UniProt Q08981 59-209, looked up)
chain: AQFMLYEETAEERNIAVHRHNEIYNNNNSVSNENNPSQVKENLSPAKICPYERAFLREGGRIALKDLSVDEFKGYIQDPLTDETIPLTLPLGDKKISLPSFITPPRNSKISIFFTSKHQGQNPETKISRSTDDVSEKKVVRKLSFHVYEDE
In the case of B3, the binding result in experiment [3] is listed as “binds”.

B4: Acm1^ΔN-T161A (Acm1 residues 59-209, T161A) (domain or fragment, S. cerevisiae, UniProt Q08981 59-209, looked up)
chain: B3 chain with T103A
Turning to B4, the binding result in experiment [4] is on record as “binds”.
